The source of these data is paper PMC3458530.

Common to all, as to assay: EMSA
In general terms: In EMSA bound probe runs differently from free probe, usually more slowly.

In one data set the target is T1, M.HhaI (bacterial (species ), UniProt P05102 1-327).
T1 sequence: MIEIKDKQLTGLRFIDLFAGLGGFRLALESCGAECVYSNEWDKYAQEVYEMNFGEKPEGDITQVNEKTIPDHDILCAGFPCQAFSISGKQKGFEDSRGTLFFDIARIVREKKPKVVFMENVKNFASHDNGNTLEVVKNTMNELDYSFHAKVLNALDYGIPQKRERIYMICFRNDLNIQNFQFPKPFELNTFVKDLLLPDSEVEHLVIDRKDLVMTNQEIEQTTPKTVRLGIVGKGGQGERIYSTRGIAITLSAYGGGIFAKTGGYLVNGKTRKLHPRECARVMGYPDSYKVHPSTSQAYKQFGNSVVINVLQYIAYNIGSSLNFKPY

The target in the next data set is DNMT3A full-length (human, UniProt Q9Y6K1 1-912).
Data set [1] concerns the target DNMT3A catalytic domain (cDNMT3A) (human, UniProt Q9Y6K1 612-912).

The term Kd denotes the concentration at which binding is half-saturated. Lower therefore signals higher affinity.

DNMT3A full-length, sequence (Q9Y6K1 whole entry, the tested form may be a part): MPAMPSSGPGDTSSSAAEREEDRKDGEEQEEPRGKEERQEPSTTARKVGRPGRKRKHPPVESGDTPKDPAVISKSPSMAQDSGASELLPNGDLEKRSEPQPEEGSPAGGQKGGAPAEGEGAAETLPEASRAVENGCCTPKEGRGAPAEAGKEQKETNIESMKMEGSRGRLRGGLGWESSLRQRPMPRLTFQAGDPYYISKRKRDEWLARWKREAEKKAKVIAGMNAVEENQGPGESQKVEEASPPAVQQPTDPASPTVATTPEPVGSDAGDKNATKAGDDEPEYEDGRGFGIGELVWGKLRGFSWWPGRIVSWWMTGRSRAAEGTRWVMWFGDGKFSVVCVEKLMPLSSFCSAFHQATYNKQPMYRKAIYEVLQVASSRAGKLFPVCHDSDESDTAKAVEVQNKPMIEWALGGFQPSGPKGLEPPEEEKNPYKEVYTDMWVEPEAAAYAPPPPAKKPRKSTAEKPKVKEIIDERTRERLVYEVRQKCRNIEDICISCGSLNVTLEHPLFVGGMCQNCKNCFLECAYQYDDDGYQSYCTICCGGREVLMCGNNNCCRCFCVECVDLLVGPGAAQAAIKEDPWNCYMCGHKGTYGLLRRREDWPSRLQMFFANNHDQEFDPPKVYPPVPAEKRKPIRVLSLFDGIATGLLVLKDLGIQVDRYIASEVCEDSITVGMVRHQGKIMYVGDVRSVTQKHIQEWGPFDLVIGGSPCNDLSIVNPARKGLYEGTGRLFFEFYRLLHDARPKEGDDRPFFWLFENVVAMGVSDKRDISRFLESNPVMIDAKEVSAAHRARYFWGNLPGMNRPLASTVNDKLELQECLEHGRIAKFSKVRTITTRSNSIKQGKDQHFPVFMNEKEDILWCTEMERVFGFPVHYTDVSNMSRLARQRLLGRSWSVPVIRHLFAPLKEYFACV
DNMT3A catalytic domain (cDNMT3A), sequence (Q9Y6K1 612-912): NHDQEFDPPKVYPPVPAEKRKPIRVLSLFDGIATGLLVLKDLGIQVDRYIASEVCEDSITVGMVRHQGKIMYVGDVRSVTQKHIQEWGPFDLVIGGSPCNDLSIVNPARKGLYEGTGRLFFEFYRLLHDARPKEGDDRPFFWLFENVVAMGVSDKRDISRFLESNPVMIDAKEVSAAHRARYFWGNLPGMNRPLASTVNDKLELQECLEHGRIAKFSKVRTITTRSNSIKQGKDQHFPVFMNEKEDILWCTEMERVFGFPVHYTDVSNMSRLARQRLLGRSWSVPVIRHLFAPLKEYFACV

B1: EFS1 (ssEF1a RNA) (ssRNA)
RNA: GAGUUUACCCCGCGCCACCUU
Turning to B1, the binding result (with M.HhaI; in data set [1]) was “no binding” in each case. This molecule also registered a dissociation constant (Kd) with DNMT3A full-length of 690 nM.

B2: NUP153 duplex siRNA (dsRNA)
RNA 1: ACCAAAUAAAACUGGCAAATT
RNA 2: UUUGCCAGUUUUAUUUGGUTT
modifications: 3' dTdT on both strands (DNA residues)
Molecule B2 displayed an equilibrium dissociation constant (Kd) with DNMT3A full-length of 520 nM.
